Experimental data reported in patent US20250114430A1 (UNIVERSITY OF NORTH CAROLINA AT CHAPEL HILL, published 2025).

T1: peptide of Orai1's second extracellular loop (OP2)
T1 construct: Peptide corresponding to amino acids 195-234 of Orai1
T1 peptide: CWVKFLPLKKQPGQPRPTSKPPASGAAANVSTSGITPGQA

T2: Orai1 extracellular peptide 1 (OP1)
T2 peptide: EVQLDADHDYPPGL


Columns and labels:
[1] = target: T3, Orai1 plasma membrane Ca^2+ channel (endogenous, HEK293T cells and ARDS patient immune cells) (UniProt Q96D31 1-301, limits assumed); assay: cell-based or functional assay
T3 sequence (Q96D31 whole entry): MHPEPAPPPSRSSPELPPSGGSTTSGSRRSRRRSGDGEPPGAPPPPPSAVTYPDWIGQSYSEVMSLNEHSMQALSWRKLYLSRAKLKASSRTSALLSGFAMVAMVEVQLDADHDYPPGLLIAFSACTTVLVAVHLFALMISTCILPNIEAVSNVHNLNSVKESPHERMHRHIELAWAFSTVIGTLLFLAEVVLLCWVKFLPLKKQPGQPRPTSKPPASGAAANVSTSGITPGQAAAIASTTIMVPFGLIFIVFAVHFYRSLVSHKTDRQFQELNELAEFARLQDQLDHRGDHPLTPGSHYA

[2] = target: T3, Orai1 plasma membrane Ca^2+ channel …; assay: cell-based or functional assay; remark: listed apart in the source
[3] = target: T1, peptide of Orai1's second extracellular …; assay: dynamic light scattering (Z-average)
Description: (§1) Endogenous Orai1/store operated Ca²⁺ influx have been extensively studied in HEK293T cells, so this cell type was used to understand ELD607-Orai1 interactions. […] Thapsigargin is a SERCA pump inhibitor that prevents uptake of cytosolic Ca²⁺ into the endoplasmic reticulum. Thapsigargin is commonly used to stimulate Orai1/store operated Ca²⁺ influx. […] Dynamic light scattering (DLS) was used to evaluate binding of ELD607 to peptides of Orai1 extracellular loops. […] Thus, it was concluded that ELD607 interacts with Orai1.

[4] = target: T2, Orai1 extracellular peptide 1 (OP1); assay: dynamic light scattering, Z-average increased
Description: as §1

| IC50 (Molar), Ca^2+ influx after Ca^2+ add back, HEK293T cells [1] [Molar] | IC50, inhibiting store operated Ca^2+ influx in HEK293T cells [2] [nM] | binding result [3] | binding result [4] | Binder |
| --- | --- | --- | --- | --- |
| 3.7e-08 | 124 | – | – | DITLVHDIVNMLIHGL [ELD100 peptide] |
| 8.1e-08 | 9 | no binding | binds | VHDIVNMLIRG (Synthetic 11-residue peptidomimetic derived from ELD100 (H14R, deletion of positions 1-4, L16 deletion); also called ELD142-11) [ELD607] |
